Drawing on patent publication US20200270365A1 (JIANGSU HENGRUI MEDICINE, published 2020), this text covers EC50, IC50 and Kd for 7 molecules.

Residue numbers refer to the chain shown, from its start. In names and notes the source's numbering stands.

B1: h011-3191 (antibody, V domains shown)
VH: QVQLVQSGAEVKKPGASVKVSCKASGYTFTGYTIHWVRQAPGQGLEWMGYIVPSSTYTKFNQKFKDRVTMTRDTSISTAYMELSRLRSDDTAVYYCARERIYSNYWFFDVWGQGTTVTVSS
VL: DIVMTQSPSSLSASVGDRVTITCKASQNVYTAVAWYQQKPGKSPKLLIYSASNRYTGVPSRFSGSGSGTDFTLTISSLQPEDFATYFCQQYSSYPYTFGGGTKVEIK
B2: h011-3192 (antibody, V domains shown)
VH: B1 VH with V52N
VL: B1 VL with A32E
B3: h011-3195 (antibody, V domains shown)
VH: B1 VH with V52N, Y102F
VL: B1 VL
B4: h011-3194 (antibody, V domains shown)
VH: B1 VH with V52N
VL: B1 VL with Y91L
B5: h011-3193 (antibody, V domains shown)
VH: B1 VH with V52N
VL: B1 VL with A34D
B6: h011-3133-WT: h011-3133-IgG1 format (antibody)
heavy: not shown
light: DIVMTQSPSSLSASVGDRVTITCKASQNVYTAVAWYQQKPGKSPKLLIYSASNRYTGVPSRFSGSGSGTDFTLTISSLQPEDFATYFCQQYSSYPYTFGGGTKVEIKRTVAAPSVFIFPPSDEQLKSGTASVVCLLNNFYPREAKVQWKVDNALQSGNSQESVTEQDSKDSTYSLSSTLTLSKADYEKHKVYACEVTHQGLSSPVTKSFNRGEC
notes: Human IgG1 heavy chain constant region, human kappa light chain
B7: h011-3133-YTE: h011-3133-IgG1-YTE format (antibody)
heavy: QVQLVQSGAEVKKPGASVKVSCKASGYTFTGYEIHWVRQAPGQGLEWMGYINPSATYTKFNQKFKDRVTMTRDTSISTAYMELSRLRSDDTAVYYCARERIYSNYWFFDVWGQGTTVTVSSASTKGPSVFPLAPSSKSTSGGTAALGCLVKDYFPEPVTVSWNSGALTSGVHTFPAVLQSSGLYSLSSVVTVPSSSLGTQTYICNVNHKPSNTKVDKKVEPKSCDKTHTCPPCPAPELLGGPSVFLFPPKPKDTLYITREPEVTCVVVDVSHEDPEVKFNWYVDGVEVHNAKTKPREEQYNSTYRVVSVLTVLHQDWLNGKEYKCKVSNKALPAPIEKTISKAKGQPREPQVYTLPPSRDELTKNQVSLTCLVKGFYPSDIAVEWESNGQPENNYKTTPPVLDSDGSFFLYSKLTVDKSRWQQGNVFSCSVMHEALHNHYTQKSLSLSPGK
light: B6 light
notes: Mutant human IgG1 (YTE: M252Y, S254T, T256E, EU numbering), human kappa light chain

For one experiment, the target named is T1, PCSK9 protein inserted with biotin receiving peptide BP15 and His-tag: PCSK9-BP15-His6 (human, UniProt Q8NBP7 153-692; A8T644 31-152, biotin on the BP15 biotin receiving peptide (labeled during the expression)).
T1 construct: also called WT PCSK9; PCSK9 WT
Put plainly: ELISA, biotin PCSK9 on streptavidin plate. As to the method:
The binding ability of anti-PCSK9 antibodies of the present invention to PCSK9 protein (WT PCSK9, SEQ ID NO: 5) was detected by measuring the amounts of antibodies binding to PCSK9 immobilized on the ELISA plate.
(§1) Streptavidin (sigma, CAT #S4762) was diluted to 2 μg/ml with PBS and was added into a 96-well ELISA plate, at 4° C. for overnight. The plate was washed and then was blocked with Tris buffer (including 0.9 mM CaCl₂, 0.05% Tween 20 and 5% skim milk) at 37° C. for 2 hours. Then the plate was washed again and 100 μl/well of biotin-labeled PCSK9 (produced in-house, diluted with Tris buffer containing 0.9 mM CaCl₂, 0.05% Tween 20 and 1% skim milk) was added and incubated at 37° C. for 1 hour. After the wash step various concentrations of diluted PCSK9 antibody samples was added to the plate and incubated at 37° C. for 1 hour. […] Then the plate was washed and tetramethyl brenzidine solution was added for development. Finally, the stop buffer was added and the OD450 value was measured on the Microplate reader, and then EC50 was calculated.
One may read the EC50 as the concentration at which the effect is half-maximal. A lower EC50 goes with higher potency in that assay. As to B1, the EC50 turned out to be 0.00631 µg/mL.

B2 showed an EC50 of 0.00664 µg/mL.

Molecule B3 came in with an EC50 of 0.00679 µg/mL.

In the case of B4, the EC50 was 0.00469 µg/mL.

Regarding B5, the midpoint of the response, the EC50, lay at 0.0047 µg/mL.

The next experiment deals with T2, PCSK9 D374Y mutant protein inserted with biotin receiving peptide BP15 and His-tag: PCSK9-D374Y-BP15-His6 (human, UniProt Q8NBP7 153-692; A8T644 31-152, biotin on the BP15 biotin receiving peptide).
T2 construct: also called PCSK9-Y; mutant PCSK9
Put plainly: competition ELISA, LDLR-FC coated, biotin PCSK9-Y + antibody. As to the method: The blocking ability of PCSK9 antibodies according to the present invention for the binding of LDLR-FC and PCSK9-Y (mutant PCSK9, SEQ ID NO: 6) was tested by measuring the amount of PCSK9-Y binding to LDLR in the presence of the antibodies.
(§2) LDLR-FC (produced in-house, with sequence of SEQ ID NO: 8) was diluted to 2 μg/ml with phosphate buffer and was added into the 96-well ELISA plate, at 4° C. overnight. The plate was washed and then blocked with Tris buffer (including 0.9 mM CaCl₂, 0.05% Tween 20 and 5% skim milk) at 37° C. for 2 hours. Then the plate was washed and 100 μl/well of mixture of biotin-labeled mutant PCSK9 (diluted to 1 μg/ml with Tris buffer containing 0.9 mM CaCl₂, 0.05% Tween 20 and 1% skim milk) and antibody samples (diluted with Tris buffer containing 0.9 mM CaCl₂, 0.05% Tween 20 and 1% skim milk) was added and incubated at 37° C. for 1 hour. Then the plate was washed again and horseradish peroxidase-streptavidin (sigma, CAT #S2438) was added and incubated at 37° C. for 1 hour. Then the plate was washed and tetramethyl brenzidine solution was added for development. Finally, the stop buffer was added and OD450 value was measured on the Microplate reader, then IC50 value was calculated.
For orientation: ELISA stands for enzyme-linked immunosorbent assay.
The IC50 is the concentration that gives 50% inhibition. On to B1, for which the IC50 came to 0.226 µg/mL.

Turning to B2, the IC50 was found to be 2.36 µg/mL.

For B3, the IC50 was found to be 0.689 µg/mL.

Take B4: the IC50 amounted to 0.579 µg/mL.

Regarding B5, the IC50 worked out at 0.871 µg/mL.

For another experiment, the target named is T3, PCSK9 with His-tag: PCSK9-His6 (human, UniProt Q8NBP7 153-692; A8T644 31-152).
T3 construct: also called huPCSK9; human PCSK9 antigen
Put plainly: SPR Biacore, antibody captured by human Fab capture molecule on CM5, PCSK9-His6 mobile phase. The text has this:
According to the method described in the human Fab capture kit (Cat. #28-9583-25, GE), the human Fab capture molecule was covalently linked to the CM5 biochip (Cat. #BR-1000-12, GE) so that the PCSK9 antibodies of the present invention were affinity captured. Then, human PCSK9 antigen (PCSK9 with His tag: PCSK9-His6, SEQ ID NO: 1) flowed through the surface of the biochip, and the reaction signal was detected in real time using a Biacore instrument to obtain the association and dissociation curves. Finally, the affinity values were obtained by fitting and are shown at table 16 below. After each cycle of dissociation was finished, the biochip was washed and regenerated with regeneration solution in the human Fab capture kit (GE).
(In general: Surface plasmon resonance follows binding to a sensor surface in real time, without labels.)
Broadly, the Kd is the concentration at which binding is half-saturated. Higher therefore signals a looser complex. Consider B6, for which the Kd is less than 0.0526 nM.

B7: the Kd is less than 0.0518 nM.

The next experiment addresses T1, PCSK9 protein inserted with biotin …. Put plainly: competition ELISA, LDLR-FC coated, biotin PCSK9 + antibody. As to the method: The blocking ability of PCSK9 antibodies according to the present invention for the binding of LDLR-FC (produced in-house, with sequence of SEQ ID NO: 8) and PCSK9 (SEQ ID NO: 5) was tested by measuring the amount of PCSK9 binding to LDLR in the presence of the antibodies.
as §2, with “LDLR-FC” for “LDLR-FC (produced in-house, with sequence of SEQ ID NO: 8)”, “to 5” for “to 2”, “plate, kept” for “plate,”, “biotin-labeled” for “biotin-labeled mutant”, “to 2” for “to 1”
On to B1, for which the IC50 was 0.74 µg/mL.

As for B2, the IC50 was found to be 0.698 µg/mL.

For the molecule B3, the IC50 was 2.25 µg/mL.

For B4, the IC50 amounted to 0.628 µg/mL.

Turning to B5, the IC50 worked out at 0.621 µg/mL.

The next experiment addresses T2, PCSK9 D374Y mutant protein inserted …. Put plainly: ELISA, biotin PCSK9-Y on streptavidin plate. As to the method:
The binding ability of anti-PCSK9 antibodies of the present invention to PCSK9-Y protein (mutant PCSK9, SEQ ID NO: 6) was detected by measuring the amounts of antibodies binding to PCSK9-Y immobilized on the ELISA plate.
as §1, with “hours. The” for “hours. Then the”, “washed” for “washed again”, “biotin-labeled PCSK9-Y” for “biotin-labeled PCSK9”, “wash step,” for “wash step”, “samples were” for “samples was”
For B1, the EC50 was 0.0066 µg/mL.

B2 registered an EC50 of 0.127 µg/mL.

B3 showed an EC50 of 0.0218 µg/mL.

For B4, a half-maximal response (EC50) required 0.0169 µg/mL.

For B5, a half-maximal response (EC50) required 0.0221 µg/mL.
